Data published in PMC6690855.

Biological target: Caut-bCAstrepC (C-terminal STREPII-tagged β-class carbonic anhydrase of Clostridium autoethanogenum) (Clostridium autoethanogenum)
Assay: AUC; sedimentation velocity, 50,000 rpm, 2-fold protein dilution series starting at 0.7 mg/ml, absorbance at 280 nm and interference optics; SEDFIT c(s) and non-interacting discrete species (NIDS) models

Caut-bCAstrepC (C-terminal STREPII-tagged β-class carbonic anhydrase of Clostridium autoethanogenum) (enzyme)
stoichiometry N: 2
